The target of data set [1] is MazF3 toxin, (His)6MazF(FLAG)3 (Mycobacterium tuberculosis) (UniProt P9WIH8). Nature of the data set: MST.
Data set [2] addresses MazF9 toxin, (His)6MazF(FLAG)3 (Mycobacterium tuberculosis) (UniProt P71650). Nature of the data set: MST.
Data set [3] addresses MazE3 antitoxin, full length, (His)6MazE(FLAG)3 (Mycobacterium tuberculosis) (UniProt O53451). Nature of the data set: SEC-MALS.
Data set [4] has as its target MazE9 antitoxin, full length, (His)6MazE(FLAG)3 (Mycobacterium tuberculosis) (UniProt P0CL61). Nature of the data set: SEC-MALS.
In data set [5] the target is MazF6 toxin WT, purified (Mycobacterium tuberculosis) (UniProt P9WII2). Nature of the data set: SEC-MALS.
Data set [6] concerns the target MazF9 toxin, (His)6MazF(FLAG)3 (Mycobacterium tuberculosis) (UniProt P71650). Nature of the data set: SEC-MALS.
The data set “SEC-MALS” concerns the molecule itself. Nature of the data set: SEC-MALS.
For another data set, the target named is MazE3 library. Nature of the data set: flow cytometry on cells.

Chain of MazF9 toxin, (His)6MazF(FLAG)3 (Mycobacterium tuberculosis) (P71650 whole entry): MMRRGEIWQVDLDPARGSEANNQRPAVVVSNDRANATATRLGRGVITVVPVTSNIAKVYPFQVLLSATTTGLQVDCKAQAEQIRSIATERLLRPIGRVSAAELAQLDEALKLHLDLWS

As to “C-terminal MazE3 peptide (residues 72-106) (from UniProt O53451 72-106)”, the Kd turned out to be 299 nM in data set [1] and 200 nM in data set [2].

“C-terminal MazE9 peptide (residues 43-76) (from UniProt P0CL61 43-76)” returned a Kd in data set [2] of 5.7 nM.

“MazE3 antitoxin, full length, (His)6MazE(FLAG)3 (from UniProt O53451 1-106) (natural protein)” displayed a stoichiometry N in data set [3] of 2.

Regarding “MazE9 antitoxin, full length, (His)6MazE(FLAG)3 (from UniProt P0CL61 1-76) (natural protein)”, in data set [2], the Kd came to 8.9 nM. The stoichiometry N in data set [4] was 2.

In turn, “MazF6 toxin WT, purified (from UniProt P9WII2 1-114) (natural protein)” returned a stoichiometry N in data set [5] of 2.

In data set [6], “MazF9 toxin, (His)6MazF(FLAG)3 (from UniProt P71650 1-118) (natural protein)” showed a stoichiometry N of 2.

B1: MazF3 toxin, (His)6MazF(FLAG)3 (natural protein)
chain: MRPIHIAQLDKARPVLILTREVVRPHLTNVTVAPITTTVRGLATEVPVDAVNGLNQPSVVSCDNTQTIPVCDLGRQIGYLLASQEPALAEAIGNAFDLDWVVA
B1: the “stoichiometry N” value in “SEC-MALS” came out at 2. For the same molecule, the Kd in the data set with MazE3 library is 1.7 nM.

For the origin of these results see publication PMC9585320 (Frontiers in Molecular Biosciences, 2022).
